In patent publication WO2008131575A2 (dated 2008):

Target: T1, human ALK epitope peptide (amino acids 391-406 of the ALK protein) (human)
T1 construct: the underscore is a remnant of the underlining; In the yeast screen it was fused to LexA; in the ELISA it is called the Alk LBD peptide; also called Alk LBD peptide; AIk LBD
T1 peptide: GRIGRPDNPFRVALEY
Test: ELISA (Fig. 5)

Kd: 2 to 3 nM
B1: scFv 28.11 (scFv)
scFv: QSVLTQPPSVSAAPGQKVTISCSGSTSNIGDNYVSWYQQLPGTAPQLLIYDNTKRPSGIPDRFSGSKSGTSATLGITGLQTGDEADYYCATWDNDKWGVVFGGGTKLEVLGGGGGSGGGGSGGGGSSGGGSEVQLVESGGGLVQPGGSLRLSCAASGFTFSSYAMSWVRQAPGKGLEWVSAIETSSGSTYYADSVKGRFTISRDNSKNTLYLQMNSLRAEDTAVYYCARDAWLDVLSDGFDYWGQGTLVTVSS
